Measurements from patent US20230340152A1.

Columns and labels:
Murine CD73 ECD (murine) = Murine CD73 ECD (murine) (UniProt Q61503); assay: binding assay, format not stated
[1] = target: Cynomolgus CD73 ECD (cynomolgus); assay: binding assay, format not stated
Chain of Cynomolgus CD73 ECD (cynomolgus) (chain, as listed by the source): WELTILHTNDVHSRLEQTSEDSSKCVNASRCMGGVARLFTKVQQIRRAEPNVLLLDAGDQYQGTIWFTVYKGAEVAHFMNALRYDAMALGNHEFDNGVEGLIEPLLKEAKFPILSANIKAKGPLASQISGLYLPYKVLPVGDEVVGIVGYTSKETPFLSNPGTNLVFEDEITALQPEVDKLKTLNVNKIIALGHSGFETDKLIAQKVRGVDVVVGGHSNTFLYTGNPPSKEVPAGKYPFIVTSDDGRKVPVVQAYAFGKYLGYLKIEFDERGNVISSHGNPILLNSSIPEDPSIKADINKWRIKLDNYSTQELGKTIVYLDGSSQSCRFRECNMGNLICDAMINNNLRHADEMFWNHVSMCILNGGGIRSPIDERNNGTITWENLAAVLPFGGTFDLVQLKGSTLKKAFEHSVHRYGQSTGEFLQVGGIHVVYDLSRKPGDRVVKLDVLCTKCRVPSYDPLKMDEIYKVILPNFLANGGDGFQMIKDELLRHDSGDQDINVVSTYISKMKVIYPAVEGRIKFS

Chain of Murine CD73 ECD (murine) (Q61503 29-551 limits assumed): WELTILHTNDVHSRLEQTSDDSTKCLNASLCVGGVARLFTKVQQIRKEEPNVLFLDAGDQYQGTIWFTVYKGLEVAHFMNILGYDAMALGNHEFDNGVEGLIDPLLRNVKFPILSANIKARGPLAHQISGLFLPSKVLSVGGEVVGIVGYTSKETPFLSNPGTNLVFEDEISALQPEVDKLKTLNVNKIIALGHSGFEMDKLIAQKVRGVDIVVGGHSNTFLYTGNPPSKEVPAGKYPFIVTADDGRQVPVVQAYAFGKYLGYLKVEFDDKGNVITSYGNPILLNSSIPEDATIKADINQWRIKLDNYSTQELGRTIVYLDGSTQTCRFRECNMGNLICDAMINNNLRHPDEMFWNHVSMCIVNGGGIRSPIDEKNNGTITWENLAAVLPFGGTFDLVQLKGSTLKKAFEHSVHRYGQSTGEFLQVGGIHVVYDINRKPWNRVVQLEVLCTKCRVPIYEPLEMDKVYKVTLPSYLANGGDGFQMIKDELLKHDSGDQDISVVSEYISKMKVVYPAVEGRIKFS

B1: CD730047 (antibody, V domains shown)
VH: EVQLVQSGGGVVQPGRSLRLSCAASGFTFSSYGMHWVRQAPGKGLEWVAVISYDGSIKYYADSVKGRFAISRDNAKNTLYLQMNSLRREDTAMYYCASGLTGVAGALGVWGRGTLVTVSS
VL: QSVLTQPPSASGAPGQRVTISCSGSSSNIGSNTVNWYQRLPGAAPQLLIYNNDQRPSGIPDRFSGSKSGTSGSLVISGLQSEDEADYYCAAWDDSLSGNVFGTGTKVTVL
Work on B1 yielded a 1/EC50 (Murine CD73 ECD (murine)) of 0 nM⁻¹ and a 1/EC50 [1] of 0 nM⁻¹.

B2: CD730042 (antibody, V domains shown)
VH: GVQLVQSGGGLVQPGGSLRLSCAASGFTFSSYGMHWVRQAPGKGLEWVAVISYDGSIKYYADSVKGRFTISRDDSKNALYLQMNSLRAEDTAVYYCSTLSGSYGYFDYWGRGTLVTVSS
VL: QSVLTQPASVSGSPGQSITISCAGTSSDVGGYNYVSWYQQHPGKAPKLMIYEGSKRPSGVSNRFSGSKSGNTASLTISGLQAEDEADYYCSSYTTRSTRVFGGGTKLTVL
B2 showed a 1/EC50 (Murine CD73 ECD (murine)) of 0 nM⁻¹.
